Read-outs that look alike come from different tables or passages of the source.
Experiments:
Assay in all cases: cell-based or functional assay
[1] = target: T1, human sortilin stably expressed on HEK 293 cells (HEK-SORT1 cells) (human, UniProt Q99523 78-831)
T1 sequence (looked up): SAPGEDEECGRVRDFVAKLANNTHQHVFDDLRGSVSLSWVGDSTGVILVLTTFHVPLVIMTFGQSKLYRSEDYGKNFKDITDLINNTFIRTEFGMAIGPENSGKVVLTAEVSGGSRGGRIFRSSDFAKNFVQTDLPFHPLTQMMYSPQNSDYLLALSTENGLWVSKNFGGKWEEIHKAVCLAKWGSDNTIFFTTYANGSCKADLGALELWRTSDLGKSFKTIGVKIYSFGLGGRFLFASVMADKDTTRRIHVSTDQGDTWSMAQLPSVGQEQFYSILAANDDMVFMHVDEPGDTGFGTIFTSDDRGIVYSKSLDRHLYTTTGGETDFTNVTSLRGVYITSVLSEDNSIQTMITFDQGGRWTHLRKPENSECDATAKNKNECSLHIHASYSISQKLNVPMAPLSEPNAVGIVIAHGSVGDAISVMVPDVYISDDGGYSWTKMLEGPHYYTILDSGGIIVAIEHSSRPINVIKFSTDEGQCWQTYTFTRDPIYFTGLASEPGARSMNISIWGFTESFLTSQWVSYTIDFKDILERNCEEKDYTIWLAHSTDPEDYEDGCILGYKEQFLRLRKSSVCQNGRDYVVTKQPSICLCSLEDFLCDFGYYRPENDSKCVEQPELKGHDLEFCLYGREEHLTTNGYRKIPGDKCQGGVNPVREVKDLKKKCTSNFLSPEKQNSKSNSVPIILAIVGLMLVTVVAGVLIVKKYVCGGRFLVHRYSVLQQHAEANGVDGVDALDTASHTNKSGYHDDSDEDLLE

[2] = target: T1, human sortilin stably expressed on HEK …; remark: listed apart in the source
[3] = target: T1, human sortilin stably expressed on HEK …; remark: listed apart in the source
[4] = target: T1, human sortilin stably expressed on HEK …; remark: listed apart in the source
[5] = target: T1, human sortilin stably expressed on HEK …; remark: listed apart in the source
[6] = target: T1, human sortilin stably expressed on HEK …; remark: listed apart in the source

Mean Fluorescence Intensity (MFI), uptake 37C-4C, at 12 nM [1]: 43 MFI
Mean Fluorescence Intensity (MFI), uptake 37C-4C, at 37 nM [1]: 54 MFI
Mean Fluorescence Intensity (MFI), uptake 37C-4C, at 111 nM [1]: 71 MFI
Mean Fluorescence Intensity (MFI), uptake 37C-4C, at 333 nM [1]: 171 MFI
Mean Fluorescence Intensity (MFI), uptake 37C-4C, at 1000 nM [1]: 293 MFI
Mean Fluorescence Intensity (MFI), uptake 37C-4C, at 12 nM [2]: 67 MFI
Mean Fluorescence Intensity (MFI), uptake 37C-4C, at 111 nM [2]: 85 MFI
Mean Fluorescence Intensity (MFI), uptake 37C-4C, at 333 nM [2]: 123 MFI
Mean Fluorescence Intensity (MFI), uptake 37C-4C, at 1000 nM [2]: 192 MFI
Mean Fluorescence Intensity (MFI), uptake 37C-4C, at 3000 nM [2]: 427 MFI
Mean Fluorescence Intensity (MFI), uptake 37C-4C, at 12 nM [3]: 38 MFI
Mean Fluorescence Intensity (MFI), uptake 37C-4C, at 37 nM [3]: 47 MFI
Mean Fluorescence Intensity (MFI), uptake 37C-4C, at 333 nM [3]: 143 MFI
Mean Fluorescence Intensity (MFI), uptake 37C-4C, at 1000 nM [3]: 371 MFI
Mean Fluorescence Intensity (MFI), uptake 37C-4C, at 12 nM [4]: 43 MFI
Mean Fluorescence Intensity (MFI), uptake 37C-4C, at 37 nM [4]: 54 MFI
Mean Fluorescence Intensity (MFI), uptake 37C-4C, at 111 nM [4]: 71 MFI
Mean Fluorescence Intensity (MFI), uptake 37C-4C, at 333 nM [4]: 171 MFI
Mean Fluorescence Intensity (MFI), uptake 37C-4C, at 1000 nM [4]: 293 MFI
Mean Fluorescence Intensity (MFI), uptake 37C-4C, at 7 nM [5]: 43 MFI
Mean Fluorescence Intensity (MFI), uptake 37C-4C, at 22 nM [5]: 50 MFI
Mean Fluorescence Intensity (MFI), uptake 37C-4C, at 76 nM [5]: 73 MFI
Mean Fluorescence Intensity (MFI), uptake 37C-4C, at 260 nM [5]: 145 MFI
Mean Fluorescence Intensity (MFI), uptake 37C-4C, at 882 nM [5]: 381 MFI
Mean Fluorescence Intensity (MFI), uptake 37C-4C, at 3000 nM [5]: 1300 MFI
Mean Fluorescence Intensity (MFI), uptake 37C-4C, at 12 nM [6]: 54 MFI
Mean Fluorescence Intensity (MFI), uptake 37C-4C, at 37 nM [6]: 66 MFI
Mean Fluorescence Intensity (MFI), uptake 37C-4C, at 111 nM [6]: 101 MFI
Mean Fluorescence Intensity (MFI), uptake 37C-4C, at 333 nM [6]: 205 MFI
Mean Fluorescence Intensity (MFI), uptake 37C-4C, at 1000 nM [6]: 370 MFI
B1: Compound No. 1162754, KNT neurotensin peptide conjugated to 20-mer uniform 2'-MOE phosphodiester oligonucleotide with 3'-Cy3 (peptide)
peptide: XLYENKPRRPYIL
modifications: not fully specified; position 1 printed dK (X = 2-azido-acetyl lysine); side chain joined via triazolo-BCN carbamate / 6-aminohexanol linker to the 5' end of oligonucleotide … (SEQ ID NO 2, uniform MOE, phosphodiester, 3'-Cy3)
